The source of these data is article PMC4794849.

Assay in all cases: filter binding
What all share (details): Filter binding: 20 mM HEPES-KOH pH 7.5, 1 mM MgCl2, 10 µM TCEP, 5 mM β-mercaptoethanol, 10 µM ZnCl2, 50-500 mM NaCl, 0.2 nM RNA, 25 min, room temperature. …

The subject of data set [1] is HIV-2 GagΔp6 (HIV-2 isolate ROD).
The test system of data set [2] is HIV-2 NC (NCp8) (HIV-2 isolate ROD).
The subject of data set [3] is HIV-2 MA (HIV-2 isolate ROD).

For HIV-2 PBS RNA, the equilibrium dissociation constant (Kd) in data set [1] turned out to be 314 nM; in data set [2] it was 2040 nM; in data set [3], 2070 nM.

Turning to HIV-2 TARpA RNA, the Kd is 965 nM in data set [1], 1430 nM in data set [2] and 2380 nM in data set [3].

HIV-2 Ψ RNA: the Kd is 125 nM in data set [1], 979 nM in data set [2] and 1510 nM in data set [3].
